Assay [1] deals with T1, Trop2蛋白 (UniProt P09758 27-274).
T1 sequence (looked up): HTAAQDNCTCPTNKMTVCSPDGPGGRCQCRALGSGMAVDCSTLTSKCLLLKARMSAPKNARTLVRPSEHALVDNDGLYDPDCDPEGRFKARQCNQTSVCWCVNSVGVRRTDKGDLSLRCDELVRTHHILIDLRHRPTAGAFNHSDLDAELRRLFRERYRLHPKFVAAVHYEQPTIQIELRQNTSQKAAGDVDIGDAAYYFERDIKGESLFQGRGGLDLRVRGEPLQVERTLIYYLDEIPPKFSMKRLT
Description: ELISA, antigen coated at 1 μg/mL. A general note: ELISA stands for enzyme-linked immunosorbent assay.

Assay [2] concerns the target T2, B7-H3蛋白 (UniProt Q5ZPR3-2 29-245, limits assumed).
T2 sequence (looked up): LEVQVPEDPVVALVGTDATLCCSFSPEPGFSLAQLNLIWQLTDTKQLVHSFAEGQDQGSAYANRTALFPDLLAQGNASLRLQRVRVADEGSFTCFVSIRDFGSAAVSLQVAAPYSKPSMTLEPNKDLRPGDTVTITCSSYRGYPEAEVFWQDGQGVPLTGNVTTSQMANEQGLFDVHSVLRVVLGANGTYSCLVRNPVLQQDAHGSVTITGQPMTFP
Description: ELISA, antigen coated at 1 μg/mL.

The target of assay [3] is T3, CD24蛋白 (UniProt P25063 27-59).
T3 chain (looked up): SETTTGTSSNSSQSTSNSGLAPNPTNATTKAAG
Description: ELISA, antigen coated at 1 μg/mL.

For assay [4], the target named is EphA2蛋白 (UniProt P29317 25-534, limits assumed). Description: ELISA, antigen coated at 1 μg/mL.
Assay [5] concerns the target T4, human-siglec-15蛋白 (human, UniProt Q6ZMC9 20-263, biotinylated in the BLI assay and in phage panning (site not stated)).
T4 construct: Bought protein (Novoprotein for ELISA coating; biotinylated antigen from Obiosh for panning); The same entry is used for the plain and the biotinylated protein; also called hsiglec-15; siglec-15抗原
T4 sequence (looked up): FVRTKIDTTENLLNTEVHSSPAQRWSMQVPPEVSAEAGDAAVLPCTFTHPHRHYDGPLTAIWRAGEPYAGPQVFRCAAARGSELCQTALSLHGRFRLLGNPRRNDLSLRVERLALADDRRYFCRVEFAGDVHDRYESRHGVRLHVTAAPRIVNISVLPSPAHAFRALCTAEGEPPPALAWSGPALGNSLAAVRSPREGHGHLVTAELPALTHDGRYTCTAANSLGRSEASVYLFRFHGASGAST
The assay can be described thus: BLI (Octet RED96), biotinylated siglec-15 on SA sensor, antibody at 5, 10, 20 μg/mL. A general note: In BLI a coated tip is dipped into the sample, and binding shifts an interference pattern.

What is called Kd is a measure of binding affinity in units of concentration. Low readings indicate higher affinity, high ones lower affinity.

EphA2蛋白, sequence (P29317 25-534 limits assumed): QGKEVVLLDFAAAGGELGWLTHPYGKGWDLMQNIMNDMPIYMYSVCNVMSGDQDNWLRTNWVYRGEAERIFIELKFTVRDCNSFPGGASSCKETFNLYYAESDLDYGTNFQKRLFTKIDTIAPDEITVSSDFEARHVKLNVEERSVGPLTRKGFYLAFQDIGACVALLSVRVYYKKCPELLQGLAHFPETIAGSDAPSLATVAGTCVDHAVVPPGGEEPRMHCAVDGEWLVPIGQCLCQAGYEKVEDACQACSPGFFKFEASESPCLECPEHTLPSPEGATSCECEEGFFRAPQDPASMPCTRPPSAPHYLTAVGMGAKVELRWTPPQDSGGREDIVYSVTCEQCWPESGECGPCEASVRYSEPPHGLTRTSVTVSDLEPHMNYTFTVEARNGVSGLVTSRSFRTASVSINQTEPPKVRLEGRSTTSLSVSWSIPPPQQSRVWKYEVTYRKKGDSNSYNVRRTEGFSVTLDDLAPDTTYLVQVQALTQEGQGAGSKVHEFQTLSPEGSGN

B1: S131-IgG1 (antibody, V domains shown)
VH: QVQLQESGPGLVNPSGTLSLSCTVSGDSIRNWYSWVRQPPGKGLEWIGEIHDNGGTNHNPSLKSRVTMSVGKSTSQLSLILNSVTAADTAVYHCAREGLPDGLDIWGPGTMVTVSS
VL: SSELTQDPAVSVALGQTVRITCQGDSLRSYYASWYQRKPGQAPILVMYGQNNRPSGIPDRFSGSNSRNTASLTITGAQAEDEADYYCGSRDTSDYRVLFGGGTKLTVLG
notes: also called 抗siglec15-IgG1重组抗体S131-IgG1; 全人源抗siglec-15-IgG1抗体
Turning to B1, the binding result in assay [1], in assay [2], in assay [3] and in assay [4] was “no binding” throughout. Moreover, the Kd in assay [5] was ~1 nM.

These data come from patent CN117924498A (UNIV SOUTHWEST MEDICAL, dated 2024).
